Patent publication US20230134571A1 (INTERNATIONAL AIDS VACCINE INITIATIVE, published 2023)

Columns and labels:
Assay in all cases: cell-based or functional assay
[1] = target: HIV Env of isolate MS208.A1 (clade A) (HIV)
[2] = target: HIV Env of isolate 6480.v4.c25 (clade CD) (HIV)
[3] = target: HIV Env of isolate 6811.v7.c18 (clade CD) (HIV)
[4] = target: HIV Env of isolate 6952.v1.c20 (clade CD) (HIV)
[5] = target: HIV Env of isolate A07412M1.vrc12 (clade D) (HIV)
[6] = target: HIV Env of isolate Q461.e2 (clade A) (HIV)
[7] = target: HIV Env of isolate 3301.v1.c24 (clade AC) (HIV)
[8] = target: HIV Env of isolate 0815.v3.c3 (clade ACD) (HIV)
[9] = target: HIV Env of isolate 3103.v3.c10 (clade ACD) (HIV)
[10] = target: HIV Env of isolate 620345.c01 (clade AE) (HIV)
[11] = target: HIV Env of isolate BJOX009000.02.4 (clade AE) (HIV)
[12] = target: HIV Env of isolate BJOX028000.10.3 (clade AE) (HIV)
[13] = target: HIV Env of isolate T263-8 (clade AG) (HIV)
[14] = target: HIV Env of isolate T278-50 (clade AG) (HIV)
[15] = target: HIV Env of isolate 6244_13_B5_4576 (clade B) (HIV)
[16] = target: HIV Env of isolate CAAN5342.A2 (clade B) (HIV)
[17] = target: HIV Env of isolate SC422661.8 (clade B) (HIV)
[18] = target: HIV Env of isolate CNE20 (clade BC) (HIV)
[19] = target: HIV Env of isolate 7030102001E5(Rev-) (clade C) (HIV)
[20] = target: HIV Env of isolate Ce0682_E4 (clade C) (HIV)
[21] = target: HIV Env of isolate Ce1176_A3 (clade C) (HIV)
[22] = target: HIV Env of isolate Ce703010054_2A2 (clade C) (HIV)
[23] = target: HIV Env of isolate HIV-001428-2.42 (clade C) (HIV)
[24] = target: HIV Env of isolate HIV-16845-2.22 (clade C) (HIV)
[25] = target: HIV Env of isolate ZM109F.PB4 (clade C) (HIV)
[26] = target: HIV Env of isolate ZM233M.PB6 (clade C) (HIV)

Binder | IC50 (µg/ml) with constrains [1] | IC80 (µg/ml) with constrains [1] | IC50 (µg/ml) with constrains [2] | IC50 (µg/ml) with constrains [3] | IC50 (µg/ml) with constrains [4] | IC50 (µg/ml) with constrains [5] | IC50 (µg/ml) with constrains [6] | IC80 (µg/ml) with constrains [6] | IC50 (µg/ml) with constrains [7] | IC80 (µg/ml) with constrains [7] | IC50 (µg/ml) with constrains [8] | IC80 (µg/ml) with constrains [8] | IC50 (µg/ml) with constrains [9] | IC80 (µg/ml) with constrains [9] | IC50 (µg/ml) with constrains [10] | IC80 (µg/ml) with constrains [10] | IC50 (µg/ml) with constrains [11] | IC80 (µg/ml) with constrains [11] | IC50 (µg/ml) with constrains [12] | IC80 (µg/ml) with constrains [12] | further results
ePGDM13 (antibody, V domains shown) VH: QAQLVQSGPEVRKPGTSVKVSCKNPGNTLTTYDLHWVRQVPGQGLQWMGWISHEGDKKVIVERFKAKVTIDWDRSTNTAYLQLSGLTSEDTAVYYCAKGSKHRLRDYALYDEDGALNWAVDVDYLANLEFWGQGTAVTVSS VL: DIVLTQSPLSLSVTPGESASISCKSSHSLQHGDRNNYLAWYVQKPGRSPQLLLDLASERASGVPDRFSGSGSEKDFTLKISRVETEDVGTYYCMQGRESPWTFGQGTKVDIK | 0.027 µg/mL | 0.109 µg/mL | > 100 µg/mL | > 100 µg/mL | 0.079 µg/mL | 0.029 µg/mL | 0.132 µg/mL | 0.528 µg/mL | 0.057 µg/mL | 0.228 µg/mL | > 100 µg/mL | > 100 µg/mL | 0.09 µg/mL | 0.36 µg/mL | > 100 µg/mL | > 100 µg/mL | 0.265 µg/mL | 1.06 µg/mL | 0.035 µg/mL | 0.139 µg/mL | IC50 (µg/ml) with constrains [13]: 0.025 µg/mL; IC50 (µg/ml) with constrains [14]: 1.6 µg/mL; IC50 (µg/ml) with constrains [15]: 30.8 µg/mL; IC50 (µg/ml) with constrains [16]: 40.2 µg/mL; IC50 (µg/ml) with constrains [17]: 1.56 µg/mL; IC50 (µg/ml) with constrains [18]: 0.004 µg/mL; IC50 (µg/ml) with constrains [19]: > 100 µg/mL; IC50 (µg/ml) with constrains [20]: 0.011 µg/mL; IC50 (µg/ml) with constrains [21]: 0.031 µg/mL; IC50 (µg/ml) with constrains [22]: 0.008 µg/mL; IC50 (µg/ml) with constrains [23]: 0.003 µg/mL; IC50 (µg/ml) with constrains [24]: > 100 µg/mL; IC50 (µg/ml) with constrains [25]: 0.049 µg/mL; IC50 (µg/ml) with constrains [26]: 0.001 µg/mL
PGDM1400 (antibody, V domains shown) VH: QVHLTQSGPEVRKPGTSVKVSCKAPGNTLKTYDLHWVRSVPGQGLQWMGWISHEGDKKVIVERFKAKVTIDWDRSTNTAYLQLSGLTSGDTAVYYCAKGSKHRLRDYALYDDDGALNWAVDVDYLSNLEFWGQGTAVTVSS VL: DFVLTQSPHSLSVTPGESASISCKSSHSLIHGDRNNYLAWYVQKPGRSPQLLIYLASSRASGVPDRFSGSGSDKDFTLKISRVETEDVGTYYCMQGRESPWTFGQGTKVDIK | 0.01 µg/mL | 0.041 µg/mL | > 100 µg/mL | > 100 µg/mL | 1.76 µg/mL | 0.029 µg/mL | 0.143 µg/mL | 0.572 µg/mL | 0.131 µg/mL | 0.523 µg/mL | > 100 µg/mL | > 100 µg/mL | 0.223 µg/mL | 0.892 µg/mL | > 100 µg/mL | > 100 µg/mL | 1.1 µg/mL | 4.42 µg/mL | 0.121 µg/mL | 0.483 µg/mL | IC50 (µg/ml) with constrains [13]: 0.02 µg/mL; IC50 (µg/ml) with constrains [14]: 5.41 µg/mL; IC50 (µg/ml) with constrains [15]: > 100 µg/mL; IC50 (µg/ml) with constrains [16]: > 100 µg/mL; IC50 (µg/ml) with constrains [17]: 15.7 µg/mL; IC50 (µg/ml) with constrains [18]: 0.005 µg/mL; IC50 (µg/ml) with constrains [19]: > 100 µg/mL; IC50 (µg/ml) with constrains [20]: 0.009 µg/mL; IC50 (µg/ml) with constrains [21]: 0.526 µg/mL; IC50 (µg/ml) with constrains [22]: 0.014 µg/mL; IC50 (µg/ml) with constrains [23]: 0.014 µg/mL; IC50 (µg/ml) with constrains [24]: > 100 µg/mL; IC50 (µg/ml) with constrains [25]: 0.098 µg/mL; IC50 (µg/ml) with constrains [26]: 0.002 µg/mL
ePGDM9 (antibody, V domains shown) VH: QAQLVQSGPEVRKPGTSVKVSCKNPGNTLTTYDLHWVRQVPGQGLQWMGWISHEGDKKVIVERFKAKVTIDWDRSTNTAYLQLSGLTSEDTAVYYCAKGSKHRLRDYALYDEDGALNWAVDVDYLANLEFWGQGTAVTVSS VL: DIVLTQSPLSLSVTPGESASISCKSSQSLIHGDRNNYLAWYVQKPGRSPQLLIDLASERASGVPDRFSGSGSRKDFTLKISRVETEDVGTYYCMQGRESPWTFGQGTKVDIK | 0.009 µg/mL | 0.036 µg/mL | > 100 µg/mL | > 100 µg/mL | 0.052 µg/mL | 0.026 µg/mL | 0.06 µg/mL | 0.24 µg/mL | 0.021 µg/mL | 0.084 µg/mL | > 100 µg/mL | > 100 µg/mL | 0.073 µg/mL | 0.29 µg/mL | > 100 µg/mL | > 100 µg/mL | 0.234 µg/mL | 0.936 µg/mL | 0.019 µg/mL | 0.078 µg/mL | IC50 (µg/ml) with constrains [13]: 0.015 µg/mL; IC50 (µg/ml) with constrains [14]: 0.506 µg/mL; IC50 (µg/ml) with constrains [15]: 12.6 µg/mL; IC50 (µg/ml) with constrains [16]: 17.5 µg/mL; IC50 (µg/ml) with constrains [17]: 1.33 µg/mL; IC50 (µg/ml) with constrains [18]: 0.002 µg/mL; IC50 (µg/ml) with constrains [19]: > 100 µg/mL; IC50 (µg/ml) with constrains [20]: 0.005 µg/mL; IC50 (µg/ml) with constrains [21]: 0.022 µg/mL; IC50 (µg/ml) with constrains [22]: 0.008 µg/mL; IC50 (µg/ml) with constrains [23]: 0.002 µg/mL; IC50 (µg/ml) with constrains [24]: > 100 µg/mL; IC50 (µg/ml) with constrains [25]: 0.027 µg/mL; IC50 (µg/ml) with constrains [26]: 0.002 µg/mL
ePGDM5 (antibody, V domains shown) VH: QAQLVQSGPEVRKPGTSVKVSCKNPGNTLTTYDLHWVRQVPGQGLQWMGWISHEGDKKVIVERFKAKVTIDWDRSTNTAYLQLSGLTSEDTAVYYCAKGSKHRLRDYALYDEDGALNWAVDVDYLANLEFWGQGTAVTVSS VL: DFVLTQSPLSLSVTPGESASISCKSDHSLQHGDRNNYLAWYVQKPGRSPQLLIDLASERASGVPDRFSGSGSRKDFTLKIDRVEAEDVGTYYCMQGRESPWTFGQGTKVDIK | 0.007 µg/mL | 0.029 µg/mL | > 100 µg/mL | > 100 µg/mL | 0.033 µg/mL | 0.009 µg/mL | 0.104 µg/mL | 0.415 µg/mL | 0.043 µg/mL | 0.174 µg/mL | > 100 µg/mL | > 100 µg/mL | 0.063 µg/mL | 0.254 µg/mL | > 100 µg/mL | > 100 µg/mL | 0.296 µg/mL | 1.18 µg/mL | 0.021 µg/mL | 0.086 µg/mL | IC50 (µg/ml) with constrains [13]: 0.019 µg/mL; IC50 (µg/ml) with constrains [14]: 1.06 µg/mL; IC50 (µg/ml) with constrains [15]: 18.9 µg/mL; IC50 (µg/ml) with constrains [16]: 73 µg/mL; IC50 (µg/ml) with constrains [17]: 1.33 µg/mL; IC50 (µg/ml) with constrains [18]: 0.004 µg/mL; IC50 (µg/ml) with constrains [19]: > 100 µg/mL; IC50 (µg/ml) with constrains [20]: 0.005 µg/mL; IC50 (µg/ml) with constrains [21]: 0.022 µg/mL; IC50 (µg/ml) with constrains [22]: 0.008 µg/mL; IC50 (µg/ml) with constrains [23]: 0.003 µg/mL; IC50 (µg/ml) with constrains [24]: > 100 µg/mL; IC50 (µg/ml) with constrains [25]: 0.03 µg/mL; IC50 (µg/ml) with constrains [26]: 0.002 µg/mL
